Test results reported in paper PMC6150197, “NeoBOMB1, a GRPR-Antagonist for Breast Cancer Theragnostics: First Results of a Preclinical Study with [^67Ga]NeoBOMB1 in T-47D Cells and Tumor-Bearing Mice” (Molecules : A Journal of Synthetic Chemistry and Natural …, 2017).
Where two headings read alike, the source gives them in different places.

Key:
[1] = male Swiss albino mice, iv 3 nmol total peptide, radio-HPLC
Procedure: [^67Ga]NeoBOMB1 was injected as a 100 μL bolus (11–22 MBq, 3 nmol total peptide) in the tail vein of male Swiss albino mice (30 ± 5 g, NCSR “Demokritos” Animal House Facility). Mice were anesthetized, and blood (0.5–1 mL) was collected from the heart at 5 and 30 min post injection (pi). Animals were euthanized and blood directly drawn from the heart was transferred in a pre-chilled EDTA-containing Eppendorf tube on ice. Blood samples were centrifuged for 10 min at 2000× g at 4 °C and plasma was collected. After addition of an equal volume of ice-cold MeCN the mixture was centrifuged for 10 min at 15,000× g at 4 °C. The supernatant was concentrated under a N2-flux at 40 °C to 0.05–0.1 mL, diluted with saline (0.4 mL), filtered through a 0.22 μm Millex GV filter (Millipore, Milford, MA, USA) and analyzed by RP-HPLC. The Symmetry Shield RP18 (5 μm, 3.9 mm × 20 mm) column was eluted at a flow rate of 1.0 mL/min with the following linear gradient: 100% A and 0% B to 50% A and 50% B in 50 min; (A = 0.1% aqueous TFA (v/v) and B = MeCN). The tR of the intact radiopeptide was determined by coinjection with the [^67Ga]NeoBOMB1 reference in the HPLC.

[2] = tested on: T-47D Xenograft-Bearing SCID Mice; assay: in vivo; conditions: T-47D tumor, 4 h pi, mean ± sd, n = 4
Procedure: (§1) Female SCID mice (15 ± 3 g, six weeks of age animals at the day of arrival, NCSR “Demokritos” Animal House Facility) were acclimatized under aseptic conditions and treated with estrogens (receiving 4 mg/L β-estradiol, Sigma-Aldrich, St. Louis, MO, USA, in their drinking water,) for a week prior to inoculation. A ≈ 150 μL bolus containing a suspension of ≈1.2 × 10^7 freshly harvested human T-47D cells suspended in Matrigel (Corning Life Sciences, Inc., Bedford, MA, USA) was subcutaneously injected in their flanks. The animals were kept under estrogen treatment for additional 8 weeks till they developed well-palpable tumors (100–200 mg) at the inoculation sites.
(§2) On the day of the experiment animals were allowed access to water, but not to food. Animals in 3 groups of 4 received a 100 μL bolus of [^67Ga]NeoBOMB1 (37 kBq, corresponding to 10 pmol, or 200 pmol total peptide or 40 nmol for in vivo GRPR-blockade for each of the 3 groups) was injected in the tail vein; animals were euthanized at 4 h pi and dissected. Samples of blood, tumors and organs of interest were collected, weighed and measured for radioactivity in the gamma counter. Intestines and stomach were not emptied of their contents. In another experimental setting, mice in 3 groups of 4 received a 100 μL bolus of [^67Ga]NeoBOMB1 (37 kBq, 200 pmol); they were euthanized at 1 h, 4 h and 24 h pi and biodistribution was conducted as described above. Statistical analysis was conducted using the unpaired two-tailed Student’s t-test; values p < 0.05 were considered statistically significant.

in vivo = conditions: female, SCID, mouse, iv, total radioactivity, Biodistribution, mean ± sd, n = 4; for tissue uptake at 4 h: 4 h pi; for tissue uptake at 1 h: 1 h pi; for tissue uptake at 24 h: 24 h pi
Procedure: as §1, §2

[3] = T-47D tumor, 200 pmol, Tumor, 200 pmol peptide (0.185 MBq/nmol) iv, Table 2 time study
[4] = blood, 200 pmol, 200 pmol peptide (0.185 MBq/nmol) iv, Table 2 time study
[5] = femur, 200 pmol, 200 pmol peptide (0.185 MBq/nmol) iv, Table 2 time study
[6] = heart, 200 pmol, 200 pmol peptide (0.185 MBq/nmol) iv, Table 2 time study
[7] = intestines (not emptied), 200 pmol, Intestines, 200 pmol peptide (0.185 MBq/nmol) iv, Table 2 time study
[8] = kidneys, 200 pmol, 200 pmol peptide (0.185 MBq/nmol) iv, Table 2 time study
[9] = liver, 200 pmol, 200 pmol peptide (0.185 MBq/nmol) iv, Table 2 time study
[10] = lungs, 200 pmol, 200 pmol peptide (0.185 MBq/nmol) iv, Table 2 time study
[11] = muscle, 200 pmol, 200 pmol peptide (0.185 MBq/nmol) iv, Table 2 time study
[12] = pancreas, 200 pmol, 200 pmol peptide (0.185 MBq/nmol) iv, Table 2 time study
[13] = spleen, 200 pmol, 200 pmol peptide (0.185 MBq/nmol) iv, Table 2 time study
[14] = stomach (not emptied), 200 pmol, Stomach, 200 pmol peptide (0.185 MBq/nmol) iv, Table 2 time study

In the case of CC(C)CC(CC(C)C)NC(=O)[C@H](Cc1cnc[nH]1)NC(=O)CNC(=O)[C@@H](NC(=O)[C@H](C)NC(=O)[C@H](Cc1c[nH]c2ccccc12)NC(=O)[C@H](CCC(N)=O)NC(=O)[C@@H](Cc1ccccc1)NC(=O)COCC(=O)Nc1ccc(CNC(=O)CN2CCN(CC(=O)O)CCN(CC(=O)O)CCN(CC(=O)O)CC2)cc1)C(C)C [[^67Ga]NeoBOMB1, metal not drawn], the “Intact radioligand in mouse circulation” value ([1]; blood collected 5 min pi) is reported as 98%, the “Intact radioligand in mouse circulation” value ([1]; blood collected 30 min pi) is reported as 90% and the “Biodistribution, Tumor” value ([2]; 200 pmol peptide (0.185 MBq/nmol) iv, Table 2 time study) is reported as 8.68 ± 2.9 % ID/g. The “Biodistribution, Tumor” value ([2]; 40 nmol NeoBOMB1, in vivo GRPR-blockade, iv) was 0.64 ± 0.10 % ID/g, the tissue uptake at 4 h (in vivo; T-47D tumor, 10 pmol, Tumor, 10 pmol peptide (3.7 MBq/nmol) iv) was 9.52 ± 2.15 %ID/g and the tissue uptake at 1 h (in vivo; [3]) was 7.4 ± 0.68 %ID/g. It also gave a tissue uptake at 4 h (in vivo; T-47D tumor, 200 pmol, Tumor, 200 pmol peptide (0.185 MBq/nmol) iv, Table 1 dose study) of 7.79 ± 1.54 %ID/g, a tissue uptake at 4 h (in vivo; [3]) of 8.67 ± 2.88 %ID/g and a tissue uptake at 24 h (in vivo; [3]) of 7.89 ± 1.13 %ID/g. The tissue uptake at 4 h (in vivo; T-47D tumor, 40 nmol, Tumor, 40 nmol NeoBOMB1, in vivo GRPR-blockade) was 0.6 ± 0.1 %ID/g, the tissue uptake at 1 h (in vivo; [4]) was 5.78 ± 0.29 %ID/g and the tissue uptake at 4 h (in vivo; [4]) was 0.52 ± 0.03 %ID/g. The tissue uptake at 24 h (in vivo; [4]) was 0.15 ± 0.01 %ID/g, the tissue uptake at 4 h (in vivo; femur, 10 pmol, 10 pmol peptide (3.7 MBq/nmol) iv) was 0.58 ± 0.06 %ID/g and the tissue uptake at 1 h (in vivo; [5]) was 0.73 ± 0.11 %ID/g. The tissue uptake at 4 h (in vivo; femur, 200 pmol, 200 pmol peptide (0.185 MBq/nmol) iv, Table 1 dose study) was 0.28 ± 0.01 %ID/g, the tissue uptake at 4 h (in vivo; [5]) was 0.37 ± 0.02 %ID/g and the tissue uptake at 24 h (in vivo; [5]) was 0.24 ± 0.08 %ID/g. It also gave a tissue uptake at 4 h (in vivo; femur, 40 nmol, 40 nmol NeoBOMB1, in vivo GRPR-blockade) of 0.31 ± 0.02 %ID/g, a tissue uptake at 4 h (in vivo; heart, 10 pmol, 10 pmol peptide (3.7 MBq/nmol) iv) of 0.26 ± 0.01 %ID/g and a tissue uptake at 1 h (in vivo; [6]) of 1.94 ± 0.09 %ID/g. It also gave a tissue uptake at 4 h (in vivo; heart, 200 pmol, 200 pmol peptide (0.185 MBq/nmol) iv, Table 1 dose study) of 0.34 ± 0.04 %ID/g, a tissue uptake at 4 h (in vivo; [6]) of 0.52 ± 0.04 %ID/g and a tissue uptake at 24 h (in vivo; [6]) of 0.22 ± 0.04 %ID/g. It also gave a tissue uptake at 4 h (in vivo; heart, 40 nmol, 40 nmol NeoBOMB1, in vivo GRPR-blockade) of 0.38 ± 0.02 %ID/g, a tissue uptake at 1 h (in vivo; [7]) of 10.6 ± 0.87 %ID/g and a tissue uptake at 4 h (in vivo; [7]) of 18.5 ± 2.12 %ID/g. It also gave a tissue uptake at 24 h (in vivo; [7]) of 2.31 ± 0.34 %ID/g, a tissue uptake at 4 h (in vivo; intestines, 10 pmol, Intestines (not emptied), 10 pmol peptide (3.7 MBq/nmol) iv) of 16.7 ± 2.18 %ID/g and a tissue uptake at 4 h (in vivo; intestines, 200 pmol, Intestines (not emptied), 200 pmol peptide (0.185 MBq/nmol) iv, Table 1 dose study) of 15.1 ± 1.52 %ID/g. It also gave a tissue uptake at 4 h (in vivo; intestines, 40 nmol, Intestines (not emptied), 40 nmol NeoBOMB1, in vivo GRPR-blockade) of 11.1 ± 2.71 %ID/g, a tissue uptake at 4 h (in vivo; kidneys, 10 pmol, 10 pmol peptide (3.7 MBq/nmol) iv) of 3.4 ± 0.45 %ID/g and a tissue uptake at 1 h (in vivo; [8]) of 7.33 ± 0.47 %ID/g. The tissue uptake at 4 h (in vivo; kidneys, 200 pmol, 200 pmol peptide (0.185 MBq/nmol) iv, Table 1 dose study) was 2.76 ± 0.26 %ID/g, the tissue uptake at 4 h (in vivo; [8]) was 3.1 ± 0.75 %ID/g and the tissue uptake at 24 h (in vivo; [8]) was 2.15 ± 0.42 %ID/g. The tissue uptake at 4 h (in vivo; kidneys, 40 nmol, 40 nmol NeoBOMB1, in vivo GRPR-blockade) was 3.95 ± 0.94 %ID/g, the tissue uptake at 4 h (in vivo; liver, 10 pmol, 10 pmol peptide (3.7 MBq/nmol) iv) was 3.37 ± 0.19 %ID/g and the tissue uptake at 1 h (in vivo; [9]) was 25.7 ± 1.97 %ID/g. For the same compound, the tissue uptake at 4 h (in vivo; liver, 200 pmol, 200 pmol peptide (0.185 MBq/nmol) iv, Table 1 dose study) was 6.5 ± 0.34 %ID/g, the tissue uptake at 4 h (in vivo; [9]) was 7.05 ± 0.31 %ID/g and the tissue uptake at 24 h (in vivo; [9]) was 2.26 ± 0.18 %ID/g. It also gave a tissue uptake at 4 h (in vivo; liver, 40 nmol, 40 nmol NeoBOMB1, in vivo GRPR-blockade) of 9.67 ± 0.75 %ID/g, a tissue uptake at 4 h (in vivo; lungs, 10 pmol, 10 pmol peptide (3.7 MBq/nmol) iv) of 0.5 ± 0.06 %ID/g and a tissue uptake at 1 h (in vivo; [10]) of 2.88 ± 0.2 %ID/g. It also gave a tissue uptake at 4 h (in vivo; lungs, 200 pmol, 200 pmol peptide (0.185 MBq/nmol) iv, Table 1 dose study) of 0.43 ± 0.06 %ID/g, a tissue uptake at 4 h (in vivo; [10]) of 0.47 ± 0.04 %ID/g and a tissue uptake at 24 h (in vivo; [10]) of 0.15 ± 0.02 %ID/g. It also gave a tissue uptake at 4 h (in vivo; lungs, 40 nmol, 40 nmol NeoBOMB1, in vivo GRPR-blockade) of 0.42 ± 0.02 %ID/g, a tissue uptake at 4 h (in vivo; muscle, 10 pmol, 10 pmol peptide (3.7 MBq/nmol) iv) of 0.1 ± 0.03 %ID/g and a tissue uptake at 1 h (in vivo; [11]) of 0.58 ± 0.11 %ID/g. For the same compound, the tissue uptake at 4 h (in vivo; muscle, 200 pmol, 200 pmol peptide (0.185 MBq/nmol) iv, Table 1 dose study) was 0.12 ± 0.01 %ID/g, the tissue uptake at 4 h (in vivo; [11]) was 0.17 %ID/g and the tissue uptake at 24 h (in vivo; [11]) was 0.13 ± 0.01 %ID/g. The tissue uptake at 4 h (in vivo; muscle, 40 nmol, 40 nmol NeoBOMB1, in vivo GRPR-blockade) was 0.16 ± 0.06 %ID/g, the tissue uptake at 4 h (in vivo; pancreas, 10 pmol, 10 pmol peptide (3.7 MBq/nmol) iv) was 206 ± 17.4 %ID/g and the tissue uptake at 1 h (in vivo; [12]) was 32.5 ± 0.78 %ID/g. It also gave a tissue uptake at 4 h (in vivo; pancreas, 200 pmol, 200 pmol peptide (0.185 MBq/nmol) iv, Table 1 dose study) of 42.5 ± 1.31 %ID/g, a tissue uptake at 4 h (in vivo; [12]) of 36.9 ± 3.58 %ID/g and a tissue uptake at 24 h (in vivo; [12]) of 21.3 ± 2.77 %ID/g. The tissue uptake at 4 h (in vivo; pancreas, 40 nmol, 40 nmol NeoBOMB1, in vivo GRPR-blockade) was 1.17 ± 0.11 %ID/g, the tissue uptake at 4 h (in vivo; spleen, 10 pmol, 10 pmol peptide (3.7 MBq/nmol) iv) was 1.02 ± 0.09 %ID/g and the tissue uptake at 1 h (in vivo; [13]) was 1.71 ± 0.5 %ID/g. The tissue uptake at 4 h (in vivo; spleen, 200 pmol, 200 pmol peptide (0.185 MBq/nmol) iv, Table 1 dose study) was 0.7 ± 0.09 %ID/g, the tissue uptake at 4 h (in vivo; [13]) was 0.89 ± 0.12 %ID/g and the tissue uptake at 24 h (in vivo; [13]) was 0.46 ± 0.08 %ID/g. The tissue uptake at 4 h (in vivo; spleen, 40 nmol, 40 nmol NeoBOMB1, in vivo GRPR-blockade) was 0.79 ± 0.11 %ID/g, the tissue uptake at 1 h (in vivo; [14]) was 5.89 ± 1.02 %ID/g and the tissue uptake at 4 h (in vivo; [14]) was 2.66 ± 0.16 %ID/g. The tissue uptake at 24 h (in vivo; [14]) was 2.07 ± 0.43 %ID/g, the tissue uptake at 4 h (in vivo; stomach, 10 pmol, Stomach (not emptied), 10 pmol peptide (3.7 MBq/nmol) iv) was 4.36 ± 0.56 %ID/g and the tissue uptake at 4 h (in vivo; stomach, 200 pmol, Stomach (not emptied), 200 pmol peptide (0.185 MBq/nmol) iv, Table 1 dose study) was 2.38 ± 0.13 %ID/g. It also gave a tissue uptake at 4 h (in vivo; stomach, 40 nmol, Stomach (not emptied), 40 nmol NeoBOMB1, in vivo GRPR-blockade) of 0.42 ± 0.1 %ID/g, a tissue uptake at 4 h (in vivo; whole blood, 10 pmol, Blood, 10 pmol peptide (3.7 MBq/nmol) iv) of 0.53 ± 0.04 %ID/g and a tissue uptake at 4 h (in vivo; whole blood, 200 pmol, Blood, 200 pmol peptide (0.185 MBq/nmol) iv, Table 1 dose study) of 0.42 ± 0.06 %ID/g. For the same compound, the tissue uptake at 4 h (in vivo; whole blood, 40 nmol, Blood, 40 nmol NeoBOMB1, in vivo GRPR-blockade) was 0.46 ± 0.03 %ID/g.
